Test results taken from publication PMC10546976.

Key:
neuPABP (PABPC1L2) = test: EMSA; conditions: […] (100 nM), 1 h at 30 C, pH not stated
PABPC1 = PABPC1 (UniProt P11940 1-636); test: EMSA
Sequence of PABPC1 (P11940 whole entry): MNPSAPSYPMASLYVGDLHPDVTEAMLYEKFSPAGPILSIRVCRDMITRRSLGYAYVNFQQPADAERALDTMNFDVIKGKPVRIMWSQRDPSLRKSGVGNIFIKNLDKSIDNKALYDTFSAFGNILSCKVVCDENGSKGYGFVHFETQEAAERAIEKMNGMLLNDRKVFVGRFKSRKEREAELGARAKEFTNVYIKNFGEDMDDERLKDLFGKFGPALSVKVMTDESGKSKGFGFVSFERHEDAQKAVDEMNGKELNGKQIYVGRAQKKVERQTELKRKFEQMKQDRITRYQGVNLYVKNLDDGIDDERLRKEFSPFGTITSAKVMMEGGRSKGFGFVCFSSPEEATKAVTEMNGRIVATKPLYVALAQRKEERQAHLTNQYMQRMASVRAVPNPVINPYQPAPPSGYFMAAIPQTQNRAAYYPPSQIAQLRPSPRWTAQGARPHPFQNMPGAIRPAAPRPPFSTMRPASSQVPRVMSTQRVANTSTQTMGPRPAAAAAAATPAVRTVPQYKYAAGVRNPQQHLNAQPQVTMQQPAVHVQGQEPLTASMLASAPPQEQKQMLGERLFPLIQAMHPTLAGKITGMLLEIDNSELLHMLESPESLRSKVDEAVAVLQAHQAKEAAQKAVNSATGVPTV

With AAAAAAAAAAAAAAAAAAAAAAAAA [oligo(A)25] the Kd (neuPABP (PABPC1L2)) was 50 nM.

B1: oligo(A)25 (ssRNA)
RNA: AAAAAAAAAAAAAAAAAAAAAAAAA
Work on B1 yielded a Kd (PABPC1) of roughly 50 nM.
